In the nanobody polyreactivity screen of Harvey et al. (2022):

Experiment: yeast display, Sf9 membrane polyspecificity reagent, FACS + sequencing; frameworks hold sequencing errors
How it was run: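 Polyreactivity labels are assigned by the sorting gate from which each nanobody was recovered. The gates were low and high (top ~1%), set on anti-HA fluorescence for expression and streptavidin fluorescence for reagent binding. Before sorting, galactose-induced (36–48 hours) yeast display cells were stained for 1 hour at 4 °C with 10% biotinylated, detergent-solubilized Sf9 membrane reagent.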

Sequence	polyreactivity (PSR sort gate)
QVQLVESGGGLVQAGGSLRLSCAASGRIFLGYAMGWYRQPPGKVSELVAAINSVASTNYADSVKGRFTISRDNAKNTVYLQMNSLKPEDTAVYYCAAVYFLVQSDLPAYDYWGQGTLVTVSS	low polyreactivity
QVQLVESGGGLVQAGGSLRLSCAASGRTFRYYAMGWYRQAPGKERELVAAITRSGGSTNYADSVKGRFTISRDNAKNTVYLQMNSLKPEDTAVYYCNREGRSVSGYYYYWGQGTQVTVSS	high polyreactivity
QVQLVESGGGLVQAGGSLRLSCAASGGIFGSYAMGWYRQAPGKERELVADITQSGGRTRYADSVKGRFTISRDNAKNTVYLQMNSLKPEDSAVYYCNAQDVDSGDDYDYWGQGTQVTVSS	low polyreactivity
QVQLVESGGGLVQAGGSLRLSCAASGRIFSRYAMGWYRQAPGKERELVAAITRGGSTYYADSVKGRFTISRDNAKNTVYLQMNSLKPEDTAVYYCAKDGYRPDDYGYWGQGTQVTVSS	high polyreactivity
QLQLVESGGGLVQAGGSLRLSCAASASTFYRYAMCCYIQAPGKERELVAGISSSGGSTYYADSVKGRFTISRDNAKNTVYLQMNSLKPEDTAVYYCAAVGQWGYGYWGQGTQVTVSS	high polyreactivity
QVQLVQSGGGLVQAGGSLRLSCAASGITFEYNTMGWYRQAPGKERELVAAITQGGGTTNYADSVKGRFTISRDNAKNTVYLQMNSLKPEDTAVYYCAAFVGYLLLYYPTYYYWGQGTEVTVSS	low polyreactivity
QVQLVESGGGLVQPGGSLRLSSAASGITFPDYAMGWYRKAPGKERELVATITSSGGRTYYAHSVKGRFTISRDNAKNTVYLQMKSLKTEDTAVYYCAARRAYIRTLYYWGQGTQVTVSS	high polyreactivity
QVQLVESGGGLVQAGGSLRLSCAASGSTFTIYAMGWYRQAPGTERELVATIRAGGGRTSYADSVKGRFTISRDNAKNTVYLQMNSLKPEETAVYYCAVYVRPTRYGYWGQGTQVTVSS	high polyreactivity
QVQLVESGGALVQAGCSLRLSCAASGRTFYRNAMGWYRQAPGKERELVARISRNGGTTYYADSVKGRFTISRDNAKNTVYLQMNSLIPEYTAVYYCAAPIYDGARGDYWGQGTQVTVCS	high polyreactivity
QVQLVESGGGLVQAGGSLRLSCAASGSTFYRYAMGWYRPAPGKERELVAAITSAGSTNYADSVKGRFTISRDNAKNTVYLQMNSLKPEDTAVYYCAKDLTRWGYNEYDYWGQGSQVTVSS	low polyreactivity
QVQLVESGGGLVQAGGSLRLSCAASGGIFPWNAMGWYRQAPGKERELVAAIDNTDGTHYADSVKGRFTISRDNAKNTVYLQMNSQKPEDTAVYYCAAEYYYFVYPFYNWGYEYWGQGTQVTVSS	high polyreactivity
QVQLVESGGGLVQAGGSLRLSCAPSGLIFKKYTMGGYRQSPGKERELVASISKSGGSTYYADSVKGRFTFSRDNAKNTYYLQMNCLKPEDTAVYYCNRVSHYIRFDYWVQGTQVTVSS	low polyreactivity
QVQLVESGGGLVQAGGSLRLSCAASGSTYHQYTMGWYRQAPRKERELVSTINNGGITNYADSLKGRFTISRDNAKKTVYLQLISQNPEDTAVYYCAADYSYYGRYGRYDYWGQGTQVTVSS	low polyreactivity
QDQLVESGGGLVQAGGSLRLSCAASGSTFQENAMGWYRQAPGKEREFVAAISGSGGSTYYADSVKGRFTISRDNAKNSVYLQMNSLKPEDTAVYYCAAYVTGYVNTVGSGWLVWGVDFWGQGTQVTVSS	low polyreactivity
QVQLVESGGGLVQAGGSLRLRCAASGLIFARNAMGWYRHAPGKERELVAAISRRGGSTYYADSVKGRFTISRDNAKNTVYLQMNSLKPEDTAVYYCAADTPYWQSSKYDYWGQGTQVTVSS	high polyreactivity
QVQLVESGGGLVQAGGSLRLSCDASGRTFASNVMGWYRQAPGKERELVAAISRRGGSTYYADSVKGRFTISRDNAKNTVYLQMNSLKPEDTAVYYCNADDKAQSDYWGQGTQVTVSS	high polyreactivity
QVQLVESGGGLVQAGGSLRLSCAASGSIFSFYAMGWYRQAPGKEREFVAAITISDDSTYYADSVKGRFTISRDNAKNTVYLQMNSLKPEDTAVYYCNARYLSWYFKYLYDYWGQGTQVTVSS	low polyreactivity
QVQLVESGGGLVQAGGSLRLSCAASGRTFYFYVKGWYRQAPAKERELVARISWSGGSTYYADSVKGRFTISRDNAKNTVYLQMNSLKPEDTAVYYCARQYIYPSSGEYDSWGQGTQVTVSS	low polyreactivity
QVQLVESGGGLVQAGGSLRLSCAASGRIFDCYAMGWDRQAPGKERELVAAIRASGGRTYYADSVKGRFTISRDNAKNTVYLQMNSLKPEDTAVYYCAADSVKYGGDYGGQGTQVTVSS	high polyreactivity
QVQLVESGGGLVQAGGSLRLSCAASGSIFNYNTMGWYRQAPGKERELVADISWSGGSTYYADSVKGRFTISRDNAKNTVYLQMNSLKPEDTAVYYCAADFGLFPYVGTGYYFWGQGTQVTVSS	low polyreactivity
QVQLVESGGGLVQAGGSLRLSWAASGSTFYAYAMGCYRQSPGNERELVATISWSGGSTYADSVKGRFTISRDNAKYTVYLQMNSMTPEDTAVYYCNGSGAFYPTQVHPGYTLWSYDDWGQGTQVTVSS	low polyreactivity
QVKLVESGGGLVQAGGSLRLSCAASGRIFYGYTMVWYRQAPGKERELVAAISSSGGSTYYADSVKGRFTISRDNAKNTVYLQMISLKPEDTAVYYCAAYVPYSPYHVEFNYWGQGTQVTVSS	high polyreactivity

Sequence	polyreactivity (PSR sort gate)
QVQLVESGGRLVQAGGSLRLRCAASGSTIPYNAMGWYRQAPGKERELLAAITSGGSTNYADSVKGRFTISRDNAMNTVYLQMNSLKPEDTAVYYCNADSSGWFPFDYWGQGTQVTVSS	low polyreactivity
QVQLVESGGGLVQAGGSLRLSCAASGSIFQLNAKGWYRQAPGKERELVAAITWSGDSTYYADSVKGRFTISRDNAKNTVYLQMNSLKPEDTAVYYCAADVLTTPPPREFEYWGQGTQVTVSS	high polyreactivity
QVQLVESGGGLVQAGGSLSLSCAASGFTITSYAMGWYRQAPGKERELVAAINSGGSTNYADSVKGRFTISRDNAKNTVYLQMNSLIPEDNAVYYCAAKRRSYRITYVGVGYKYGYWGLGTQVTVSS	high polyreactivity
QVQLVESGGGLVQAGGSLRLSCAASGFTFDTYTMGWYRQAPGKERELVAAISSGGNTNYADSVKGRFTISRDNAKNTVYLQMNSLKPEDTAVYYCARGATLLQYSYWGVYEYDSWGQGTQVTVSS	low polyreactivity
QVQLVESGGGLVQAGGSLRLSCAASGSTFGSYAMVWYRQAPGKERELVADISSRGASTYYADSVKGRFTISRDNAKNTVYLQMNRLKPEDTAVYYCARDVYIWYGYGYFPEYEYWGQGTQVTVSS	low polyreactivity
QLQLVESGGGLVQAGGSLRLSCAASGRIFHSYTMGCYTQAPGKHRELVSAITWSCGSTYYADSVKGRLTISRDHAKNTVYFQMNSLKAEDTSVFYCNAKRRVFRLSVTSAFDYWGQGTQVTVSS	high polyreactivity
QVQLVESGGGLVQAGGSLRLSCSASGIIFIYYGMGWYRKAPGKERELVAAISRSGGRTYYADSVKGRFTISRDNANNTVYFHMNSLKPEDTAVYYCANTYTQTGFDYWGQGTQVTVSS	high polyreactivity
QVQLVESGGGLVQAGGSLRLSCAASGSTFDSYAMGWYRQAPGKERELVAVINSGGSTNYADSVKGRFTISRDNAKNTVYLLMNSLKPEDTAVYYCSAEERYRWHVVGWGYWYDYWGQGTQVTVSS	low polyreactivity
QVQLVESGGGLVQAGGSLRLSCAASGFTFGGNVMGWYRQAPGKESELVAAITYSGGSTNYADSVKGRFTISRDNAKNTVYLQMNSLKPEDTAVYYCAAGYSYVYWSESAYVYWGQGTQVSVSS	low polyreactivity
QVQLVESGGGLVQAGGSLRLSCAASGSILRQYAMGWYRPAPGKERELVAAINSGGSTNYADSVKGRITISRDNAKNTVYLQMNSLKPEDTAVYFCAADWSLYSHEFDYWGQGTQVTVSS	high polyreactivity
QVQLVESGGGLVQAGGSLRLTCAASGSTFAFYAMGWYRQAPGKERELVAAITLIGGNTYYADSVKGRFTISRDNAKNTVYLQMYSLKPEDTAVYYFAAGGYYVRYPKSWYNYWGQGTQVTVSS	low polyreactivity
QVQLVESGGGLVQAGGSLRLSCAASGRILYTYAMGWYRQAPGKERELVATISSGGGTNYADSVKGRFTISRDNAKNTVYLQMNSLKPEDSAVYYCAARYGYSRGPYYRSDYWGQGTQVTVSS	high polyreactivity
QVQLVESGGGLVQAGGSLRLSCAASGSTFYFNAMGWYRQAPGKEREFVAGIRYSGSSTYYADSVKGRFTISRDNAKNTVYLQMNSLKPEDTAVYYCAAERWCYTVRGYGYWGHGTQVTVSS	high polyreactivity
QVQLVESGGGLVQAGGSLRLSCAASVSTFAVYAMGWYRQAPGKERELVAAISSSGDRTFYADSVKGRFTISRDNAKNTVYLQMNSLKPEDTAVYYCNVPYKYRRAYDGGYDYWGQGTQVTVSS	high polyreactivity
QVQLVESGGGLVQAGGSLRLSCAASGSTFPRYAMGWYRQAPGKARELVAAINSSGSSTYYADSVKGRFTISRDNAKNTVYLQMNSLKPEDTAVYYCAAKARYRDYYYWGQGTQVTVSS	high polyreactivity
QVQLVESGGGLVQAGGSLRLSCAASGSTFYSNAMGWYRQAPGKERELVAGISGSGGSTYYADSVKGRFTISRDNAKNTVYLQMNSLKPEDTAVYYCNARKTRSYFRFDSWGQGTQVTVSS	low polyreactivity
QVQLVESGGGLVQAGGSLRLSCAASGSIFRSYAMGWYSQAPGKERELVASISRRGGSTYYADSVKGRFTMSRDHAKNTVYLQMNSLKPEDTAVYYCAAVRYNSRVSTTPSEMYYWGQGTQVTVSS	low polyreactivity
QVQLVESGGGLVQAGGSLRLSCAASGSIFRYNAMGWYRQAPGKERELVAAISASGGRTHYADSVKGRFTISRDNAKNTVYLQMNSLKPEDTAVYYCAAATYRGTSLYGYWGQGTQVTVSS	high polyreactivity
QVQLVESGGGLVQAGGSLRLSCAASGITFRYYAMGWYRQAPGKERELVAAISDGGSTNYADSVKGRFTISRDNAKNTVYLQMNSLKPEDTAVYYCDADYRYLFDYWGQGTQVTVSS	high polyreactivity
QVQLVESGGGLVQAGGSLRLTCAASGFTFYGYAMGRYRQAPGKERELVAAISSSGTSTYSGDSVKGRFTISRDNAKNTVYLQMNSLKPEDTAVYYCAKDFYRRFYSWGQGTQVTLSS	high polyreactivity
QVQLVESGGGLVQAGGSLRLSCAASGFTFVRYAMGWYRQAPGKERELVAAISSSGSSTYYADSVKGRFTISRDHEKNTVYLQMNSLKPEDTAVYYCNARAGRGEDYWGQGTQVTVSS	low polyreactivity
